# B1: MKP-1: dual-specificity MAPK phosphatase; fragment of mouse MKP-1 (amino acids 1-314) expressed from a transgene under the 35S CaMV promoter (protein, UniProt P28563 1-314, looked up, fragment)
# chain: MVMEVGILDAGGLRALLREGAAQCLLLDCRSFFAFNAGHIAGSVNVRFSTIVRRRAKGAMGLEHIVPNAELRGRLLAGAYHAVVLLDERSASLDGAKRDGTLALAAGALCREARSTQVFFLQGGYEAFSASCPELCSKQSTPTGLSLPLSTSVPDSAESGCSSCSTPLYDQGGPVEILSFLYLGSAYHASRKDMLDALGITALINVSANCPNHFEGHYQYKSIPVEDNHKADISSWFNEAIDFIDSIKDAGGRVFVHCQAGISRSATICLAYLMRTNRVKLDEAFEFVKQRRSIISPNFSFMGQLLQFESQVLA
# What was measured:
# [1] = test system: NPK1-dependent activation of a MAPK and repression of the GH3 promoter; experiment: Transient expression in maize protoplasts: reversal of NPK1 effects; assay type: cell-based; conditions: transfected maize protoplasts, 35S CaMV promoter
# Source text: A phosphatase domain containing a fragment of the mouse MKP-1 (amino acids 1-314 (SEQ ID NO.: 11); Sun et al., Cell 75: 487-493, 1993) was cloned into the plant expression vector pART7. This expression plasmid was then used for transient expression of MKP-1 in maize protoplasts.
# tobacco cells = experiment: Auxin effect on division and differentiation of transfected tobacco cells; assay type: cell-based
# Experimental: To examine the effects of auxin on cell division and differentiation of cells expressing MKP-1 SEQ ID NO.:10; tobacco cells transfected with the MKP-1 transgene expressed under the control of the 35S CaMV promoter were cultured on a medium containing 0.1 μM or 1 μM NAA. […] Since prevention of MAPK activation by MKP-1 can render plant cells less sensitive to auxin, activation of some MAPK pathways may be crucial in auxin stimulated plant cell proliferation.
# tobacco cultivar SR1 = experiment: Phenotype of transgenic tobacco SR1 plants expressing the transgene (35S CaMV promoter); assay type: in vivo
# Source text: (§1) Next, we examined the phenotypic modifications of transgenic plants expressing MKP-1 under the control of the 35S CaMV promoter. For these experiments, we introduced the MKP-1 construct into tobacco cultivar SR1 and Arabidopsis plants according to standard Agrobacterium-mediated gene transfer methods. Initiation of flowering in the day-neutral tobacco cultivar SR1 is mainly dependent on the number of leaves found on the plants. These tobacco plants, in general, remain in the vegetative state until approximately twenty leaves have developed. […] Some transformants even initiated flowers after only a few small leaves had developed (FIG. 4). Despite early flowering, these plants were fertile. […] Similar results were obtained when MKP-1 was expressed in Arabidopsis plants.
# Arabidopsis plants = experiment: Phenotype of transgenic Arabidopsis plants expressing the transgene (35S CaMV promoter); assay type: in vivo
# Source text: as §1
molecule,measurement,setting,value
B1,effect on NPK1-dependent activation of a MAPK,[1],complete elimination
same,effect on repression of the auxin-inducibility of the GH3 promoter by NPK1,[1],complete elimination
same,cell division under low auxin,tobacco cells; 0.1 μM NAA,failed to divide
same,cell phenotype under high auxin,tobacco cells; 1 μM NAA,remained green and formed tight calli with differentiated shoot primordia
same,level of auxin required to initiate cell division,"tobacco cells; constant concentration of cytokinin, compared with cells transfected with vector alone",1 μM NAA
same,number of leaves before flowering compared to wild type,"tobacco cultivar SR1; MKP-1 transformed SR1 tobacco, FIG. 2",about half
same,fertility,tobacco cultivar SR1; early flowering transformants,fertile
same,reduction in the vegetative life span of the plant,tobacco cultivar SR1; in vivo,~50%
same,initiation of flowering,tobacco cultivar SR1; primary transgenic SR1 lines vs control plants,initiated flowering earlier than control plants
same,flower and seed production,tobacco cultivar SR1; transgenic vs wild-type plants,more flowers and seeds than the wild-type plants
same,fertility of reproductive organs,Arabidopsis plants; in vivo,fertile
same,inflorescence initiation,Arabidopsis plants; progenies of several Arabidopsis lines,initiate the inflorescence stem without producing any rosette leaves
